The record followed here is the supplement of paper PMC6755084.

This series concerns F1*sub RNA substrate (template-directed ligation). In words: fraction ligated after 30 min (ligated reads / total reads); higher = more ligase activity; sequences stand for … in GAGACCGCAACTGAAAAGTTGT…AGTTCTGCACGTAGAAGCAAAAGGC
The following applies: 42 °C. The method, boiled down: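 The ligase ribozyme variants were produced by PCR amplification of oligo-pool templates, T7 transcription and purification on gel. Their ligated and unligated forms were gel-separated, then reverse transcribed with barcoded primers before MiSeq sequencing. Core bases were filtered at a quality of ≥20, and fraction ligated per variant was ligated reads over total reads.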
With TATACTTGTGTAAGACACTTTGGAGGGTTGA [3d839], the fraction ligated amounted to 0.0723.

The sequence TATACTTGTGTAAGACACTTTGGATGGGTTA [3d841] displayed a fraction ligated of 0.134.

Regarding TATACTTGTGTAAGACACTTTGGATGGGTTG [3d842], the fraction ligated came to 0.809.

For the sequence TATACTTGTGTAAGACACTTTGGATGGGTTGA [2d74], the fraction ligated came to 0.805.

The sequence TATACTTGTGTAAGACACTTTGGATGGTTGA [3d840] had a fraction ligated of 0.109.

Turning to TATACTTGTGTAAGACACTTTGGTGGGTTGA [3d838], the fraction ligated was found to be 0.0565.

The sequence TATACTTGTGTAAGACATTTGGATGGGTTGA [3d835] gave a fraction ligated of 0.764.

The sequence TATACTTGTGTAAGACCTTTGGATGGGTTGA [3d834] registered a fraction ligated of 0.721.

On to TATACTTGTGTAAGCACTTTGGATGGGTTGA [3d832], for which the fraction ligated was found to be 0.776.

Regarding TATACTTGTGTAGACACTTTGGATGGGTTGA [3d830], the fraction ligated amounted to 0.776.

Consider TATACTTGTTAAGACACTTTGGATGGGTTGA [3d828], for which the fraction ligated worked out at 0.793.

On to TATACTTTCGAAGACACTTTGGATGGGTTGA [3d798], for which the fraction ligated was found to be 0.451.

As for TATACTTTCGTAAACACTTTGGATGGGTTGA [3d800], the fraction ligated was 0.307.

Regarding TATACTTTCGTAAGAACTTTGGATGGGTTGA [3d802], the fraction ligated was 0.778.

For TATACTTTCGTAAGACACTTGGATGGGTTGA [3d805], the fraction ligated worked out at 0.43.

TATACTTTCGTAAGACACTTTGATGGGTTGA [3d806] had a fraction ligated of 0.105.

The sequence TATACTTTCGTAAGACACTTTGGAGGGTTGA [3d808] returned a fraction ligated of 0.00847.

Sequence TATACTTTCGTAAGACACTTTGGATGGGTTA [3d810] had a fraction ligated of 0.00702.

TATACTTTCGTAAGACACTTTGGATGGGTTG [3d811] showed a fraction ligated of 0.145.

In turn, TATACTTTCGTAAGACACTTTGGATGGGTTGA [2d72] displayed a fraction ligated of 0.542.

As to TATACTTTCGTAAGACACTTTGGATGGTTGA [3d809], the fraction ligated was determined as 0.0312.

Sequence TATACTTTCGTAAGACACTTTGGTGGGTTGA [3d807] registered a fraction ligated of 0.00703.

For TATACTTTCGTAAGACATTTGGATGGGTTGA [3d804], the fraction ligated worked out at 0.754.

TATACTTTCGTAAGACCTTTGGATGGGTTGA [3d803] came in with a fraction ligated of 0.53.

TATACTTTCGTAAGCACTTTGGATGGGTTGA [3d801] returned a fraction ligated of 0.539.

As for TATACTTTCGTAGACACTTTGGATGGGTTGA [3d799], the fraction ligated came to 0.268.

For the sequence TATACTTTCTAAGACACTTTGGATGGGTTGA [3d797], the fraction ligated is 0.562.

TATACTTTGTAAGACACTTTGGATGGGTTGA [3d796]: the fraction ligated was found to be 0.74.

Take TATATGTCGTAAGACACTTTGGATGGGTTGA [3d758]: the fraction ligated amounted to 0.57.

TATATTGCGTAAGACACTTTGGATGGGTTGA [3d760] had a fraction ligated of 0.355.

TATATTGTCGAAGACACTTTGGATGGGTTGA [3d763] came in with a fraction ligated of 0.376.

TATATTGTCGTAAACACTTTGGATGGGTTGA [3d765] returned a fraction ligated of 0.367.

TATATTGTCGTAAGAACTTTGGATGGGTTGA [3d767] returned a fraction ligated of 0.468.

TATATTGTCGTAAGACACTTGGATGGGTTGA [3d770]: the fraction ligated was 0.641.

In the case of TATATTGTCGTAAGACACTTTGATGGGTTGA [3d771], the fraction ligated was determined as 0.288.

The sequence TATATTGTCGTAAGACACTTTGGAGGGTTGA [3d773] had a fraction ligated of 0.0159.

TATATTGTCGTAAGACACTTTGGATGGGTTA [3d775] returned a fraction ligated of 0.0168.

TATATTGTCGTAAGACACTTTGGATGGGTTG [3d776] showed a fraction ligated of 0.214.

Sequence TATATTGTCGTAAGACACTTTGGATGGGTTGA [2d70] gave a fraction ligated of 0.61.

TATATTGTCGTAAGACACTTTGGATGGTTGA [3d774]: the fraction ligated was found to be 0.0779.

Sequence TATATTGTCGTAAGACACTTTGGTGGGTTGA [3d772] yielded a fraction ligated of 0.0169.

The sequence TATATTGTCGTAAGACATTTGGATGGGTTGA [3d769] returned a fraction ligated of 0.632.

For the sequence TATATTGTCGTAAGACCTTTGGATGGGTTGA [3d768], the fraction ligated came to 0.468.

TATATTGTCGTAAGCACTTTGGATGGGTTGA [3d766] showed a fraction ligated of 0.411.

The sequence TATATTGTCGTAGACACTTTGGATGGGTTGA [3d764] displayed a fraction ligated of 0.499.

In turn, TATATTGTCTAAGACACTTTGGATGGGTTGA [3d762] gave a fraction ligated of 0.27.

TATATTGTGTAAGACACTTTGGATGGGTTGA [3d761] gave a fraction ligated of 0.778.

Sequence TATATTTCGTAAGACACTTTGGATGGGTTGA [3d759] returned a fraction ligated of 0.245.

In turn, “TATCACGCGTAAGACACTTTGGATGGGTTGA [3d1294]” came in with a fraction ligated of 0.814.

Sequence “TATCACGTCGAAGACACTTTGGATGGGTTGA [3d1297]” registered a fraction ligated of 0.781.

“TATCACGTCGTAAACACTTTGGATGGGTTGA [3d1299]” came in with a fraction ligated of 0.787.

“TATCACGTCGTAAGAACTTTGGATGGGTTGA [3d1301]” registered a fraction ligated of 0.825.

As for “TATCACGTCGTAAGACACTTGGATGGGTTGA [3d1304]”, the fraction ligated worked out at 0.81.

In the case of “TATCACGTCGTAAGACACTTTGATGGGTTGA [3d1305]”, the fraction ligated is 0.777.

Sequence “TATCACGTCGTAAGACACTTTGGAGGGTTGA [3d1307]” showed a fraction ligated of 0.104.

As for “TATCACGTCGTAAGACACTTTGGATGGGTTA [3d1309]”, the fraction ligated came to 0.734.

The sequence “TATCACGTCGTAAGACACTTTGGATGGGTTG [3d1310]” returned a fraction ligated of 0.782.

In turn, “TATCACGTCGTAAGACACTTTGGATGGGTTGA [2d128]” displayed a fraction ligated of 0.791.

In the case of “TATCACGTCGTAAGACACTTTGGATGGTTGA [3d1308]”, the fraction ligated turned out to be 0.361.

Regarding “TATCACGTCGTAAGACACTTTGGTGGGTTGA [3d1306]”, the fraction ligated amounted to 0.721.

Regarding “TATCACGTCGTAAGACATTTGGATGGGTTGA [3d1303]”, the fraction ligated was 0.807.

On to “TATCACGTCGTAAGACCTTTGGATGGGTTGA [3d1302]”, for which the fraction ligated was 0.786.

“TATCACGTCGTAAGCACTTTGGATGGGTTGA [3d1300]”: the fraction ligated was 0.768.

Sequence “TATCACGTCGTAGACACTTTGGATGGGTTGA [3d1298]” had a fraction ligated of 0.801.

Regarding “TATCACGTCTAAGACACTTTGGATGGGTTGA [3d1296]”, the fraction ligated amounted to 0.772.

Sequence “TATCACGTGTAAGACACTTTGGATGGGTTGA [3d1295]” returned a fraction ligated of 0.829.

Consider “TATCACTCGTAAGACACTTTGGATGGGTTGA [3d1293]”, for which the fraction ligated was 0.783.

As to “TATCACTGCGAAGACACTTTGGATGGGTTGA [3d1329]”, the fraction ligated was found to be 0.831.

In turn, “TATCACTGCGTAAACACTTTGGATGGGTTGA [3d1331]” came in with a fraction ligated of 0.838.

The sequence “TATCACTGCGTAAGAACTTTGGATGGGTTGA [3d1333]” displayed a fraction ligated of 0.842.

For “TATCACTGCGTAAGACACTTGGATGGGTTGA [3d1336]”, the fraction ligated is 0.793.

For “TATCACTGCGTAAGACACTTTGATGGGTTGA [3d1337]”, the fraction ligated was determined as 0.763.

As to “TATCACTGCGTAAGACACTTTGGAGGGTTGA [3d1339]”, the fraction ligated was 0.0829.

Sequence “TATCACTGCGTAAGACACTTTGGATGGGTTA [3d1341]” came in with a fraction ligated of 0.803.

Take “TATCACTGCGTAAGACACTTTGGATGGGTTG [3d1342]”: the fraction ligated amounted to 0.834.

For the sequence “TATCACTGCGTAAGACACTTTGGATGGGTTGA [2d130]”, the fraction ligated is 0.851.

As for “TATCACTGCGTAAGACACTTTGGATGGTTGA [3d1340]”, the fraction ligated was 0.15.

As for “TATCACTGCGTAAGACACTTTGGTGGGTTGA [3d1338]”, the fraction ligated came out at 0.119.

“TATCACTGCGTAAGACATTTGGATGGGTTGA [3d1335]” yielded a fraction ligated of 0.854.

Consider “TATCACTGCGTAAGACCTTTGGATGGGTTGA [3d1334]”, for which the fraction ligated stood at 0.857.

Sequence “TATCACTGCGTAAGCACTTTGGATGGGTTGA [3d1332]” displayed a fraction ligated of 0.826.

Turning to TATCACTGCGTAAGCCTTTGGATGGGTTGA [s2], the fraction ligated stood at 0.814.

“TATCACTGCGTAGACACTTTGGATGGGTTGA [3d1330]” showed a fraction ligated of 0.862.

On to “TATCACTGCTAAGACACTTTGGATGGGTTGA [3d1328]”, for which the fraction ligated was 0.81.

As to “TATCACTGGTAAGACACTTTGGATGGGTTGA [3d1327]”, the fraction ligated was found to be 0.828.

As for “TATCACTGTCAAGACACTTTGGATGGGTTGA [3d1358]”, the fraction ligated came out at 0.817.

With “TATCACTGTCGAAACACTTTGGATGGGTTGA [3d1373]”, the fraction ligated is 0.83.

In turn, “TATCACTGTCGAAGAACTTTGGATGGGTTGA [3d1375]” came in with a fraction ligated of 0.846.

Consider “TATCACTGTCGAAGACACTTGGATGGGTTGA [3d1378]”, for which the fraction ligated worked out at 0.812.

The sequence “TATCACTGTCGAAGACACTTTGATGGGTTGA [3d1379]” returned a fraction ligated of 0.75.

“TATCACTGTCGAAGACACTTTGGAGGGTTGA [3d1381]”: the fraction ligated was determined as 0.104.

In turn, “TATCACTGTCGAAGACACTTTGGATGGGTTA [3d1383]” yielded a fraction ligated of 0.75.

Sequence “TATCACTGTCGAAGACACTTTGGATGGGTTG [3d1384]” had a fraction ligated of 0.829.

Consider “TATCACTGTCGAAGACACTTTGGATGGGTTGA [2d133]”, for which the fraction ligated amounted to 0.835.

“TATCACTGTCGAAGACACTTTGGATGGTTGA [3d1382]” had a fraction ligated of 0.336.

Turning to “TATCACTGTCGAAGACACTTTGGTGGGTTGA [3d1380]”, the fraction ligated was found to be 0.369.

In the case of “TATCACTGTCGAAGACATTTGGATGGGTTGA [3d1377]”, the fraction ligated worked out at 0.841.

As to “TATCACTGTCGAAGACCTTTGGATGGGTTGA [3d1376]”, the fraction ligated worked out at 0.798.
